The target of assay [1] is rabbit anti-BSA (ACRIS, #R1048P). In words: cell-based or functional assay.
The target in the next assay is denosumab (XGEVA). Briefly: cell-based or functional assay.

B1: pCART201 (enzyme)
chain: MSVWTKGVTPLTPEQFRYNNEDVIHAPYLAHQGWYDITKAFDGKDNLLCGAATAGNMLHWWFDQNKTEIEAYLSKHPEKQKIIFNNQELFDLKAAIDTKDSQTNSQLFNYFRDKAFPNLSARQLGVMPDLVLDMFINGYYLNVFKTQSTDVNRPYQDKDKRGGIFDAVFTRGDQTTLLTARHDLKNKGLNDISTIIKQELTEGRALALSHTYANVSISHVINLWGADFNAEGNLEAIYVTDSDANASIGMKKYFVGINAHGHVAISAKKIEGENIGAQVLGLFTLSSGKDIWQKLSGGGHHHHHH
Take B1: in assay [1], the “pCART124 ratio (fold change in potency relative to IdeS), potency ELISA” value turned out to be 8 fold.

B2: pCART203 (enzyme)
chain: MDDYQRNATEAYAKEVPHQITSVWTKGVTPPEQFTQGEDVIHAPYLAHQGWYDITKAFDGKDNLLCGAATAGNMLHWWFDQNKTEIEAYLSKHPEKQKIIFNNQELFDLKAAIDTKDSQTNSQLFNYFRDKAFPNLSARQLGVMPDLVLDMFINGYYLNVFKTQSTDVNRPYQDKDKRGGIFDAVFTRGDQTTLLTARHDLKNKGLNDISTIIKQELTEGRALALSHTYANVSISHVINLWGADFNAEGNLEAIYVTDSDANASIGMKKYFVGINAHGHVAISAKKIEGENIGAQVLGLFTLSSGKDIWQKLSGGGHHHHHH
Regarding B2, the “cleavage efficacy on SDS-PAGE, fold vs pCART144” value with denosumab (XGEVA) was approximately 3 fold. In addition, the “pCART124 ratio, potency ELISA” value in assay [1] is approximately 3.5 fold.

B3: pCART197 (enzyme)
chain: MDDYQRNATEAYAKEVPHQITSVWTKGVTPLTPEQFRYNNEDVIHAPYLANQGWYDITKAFDGKDNLLCGAATAGNMLHWWFDQNKTEIEAYLSKHPEKQKIIFRNQELFDLKEAIRTKDSQTNSQLFEYFRDKAFPYLSARQLGVMPDLVLDMFINGYYLNVFKTQSTDVKRPYQDKDKRGGIFDAVFTRGNQTTLLTARHDLKNKGLNDISTIIKEELTKGRALALSHTYANVSISHVINLWGADFNAEGNLEAIYVTDSDANASIGMKKYFVGINKHGHVAISAKKIEGENIGAQVLGLFTLSSGKDIWQKLNGGGHHHHHH
For B3, the “pCART124 ratio (fold change in potency relative to IdeS), potency ELISA” value in assay [1] worked out at 8 fold.
